In test [1] the target is T1, CD38 on Daudi target cells (UniProt P28907 1-300, limits assumed). As to the kind of experiment: cell-based or functional assay.
In test [2] the target is T1, CD38 on Daudi target cells. As to the kind of experiment: cell-based or functional assay. The source holds these as a separate data set.
For test [3], the target named is T2, His-tagged human CD38 (ACRO Biosystems cat #CD8-H5224) (human, UniProt P28907 43-300).
T2 construct: Bought His-tagged protein
As to the kind of experiment: SPR (Carterra LSA), antibody captured by anti-human Fc, His-tagged CD38 injected; IgG by the head of Table 5.

In test [4] the target is T3, His-tagged cynomolgus monkey CD38 (ACRO Biosystems cat # CD8-05223 [sic]) (cynomolgus monkey, UniProt Q5VAN0 43-301).
T3 construct: Bought His-tagged protein; also called cynomolgus CD38
The test is described as above.

The target in test [5] is T4, His-tagged human CD38 (ACRO Biosystems CD8-H5224) (human, UniProt P28907 43-300).
T4 construct: bought protein; used for ELISA coating and as SPR analyte; not shown: His tag
The test is described as follows: SPR, IgG. For orientation: SPR reads the build-up and loss of mass on a sensor chip optically.

In test [6] the target is T5, His-tagged cynomolgus monkey CD38 (ACRO Biosystems, CD8-05223 [sic]) (cynomolgus monkey, UniProt Q5VAN0 43-301).
T5 construct: bought protein; used for ELISA coating and as SPR analyte; not shown: His tag
The test is described as follows: SPR, IgG.

Test [7] concerns the target T6, His-tagged mouse CD38 (ACRO Biosystems CD8-M5223) (mouse, UniProt P56528 45-304).
T6 construct: bought protein; used for ELISA coating and as SPR analyte; also called Murine; not shown: His tag
T6 sequence (looked up): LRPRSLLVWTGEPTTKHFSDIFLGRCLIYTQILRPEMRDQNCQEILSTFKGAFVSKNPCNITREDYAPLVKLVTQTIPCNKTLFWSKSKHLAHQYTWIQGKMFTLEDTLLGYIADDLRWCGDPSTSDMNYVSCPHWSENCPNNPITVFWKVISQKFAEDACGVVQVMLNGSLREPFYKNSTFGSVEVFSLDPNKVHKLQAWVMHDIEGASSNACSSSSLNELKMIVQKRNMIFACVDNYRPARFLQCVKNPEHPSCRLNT
The test is described as follows: SPR, IgG.

The target of test [8] is T2, His-tagged human CD38 (ACRO Biosystems …). As to the kind of experiment: SPR (Carterra LSA), antibody captured by anti-human Fc, His-tagged CD38 injected.
Test [9] concerns the target T3, His-tagged cynomolgus monkey CD38 (ACRO …). Described as above.

Eight molecules from patent US20220306762A1 (CRYSTAL BIOSCIENCE, published 2022) can be followed below.

Where two headings read alike, the source gives them in different places.

B1: 40769p2.2.A8 (antibody, V domains shown)
VH: EVQLLESGGGLVQPGGSLRLSCAASGFTFSDYWMNWVRQAPGKGLEWVSTISISGGIIYYADSVKGRFTISRDNSKNTLYLQMNSLRAEDTAVYYCAKDNWNDYYGMDVWGQGTTVTVSS
VL: QSVLTQPPSASGTPGQRVTISCSGSTSNIRDNYVYWYQQVPGTAPKLLIYKDDQRPSGVPDRFSGSKSGTSASLAISGLQSDDEADYYCATWDGSLNGRVFGGGTKLTVL
notes: Human V regions from transgenic chicken, cloned as scFv-Fc; The variable domains can be found in the listing by the CDRs
As a reminder, the Kd is the free concentration of one partner at which half of the binding sites on the other are occupied at equilibrium, for simple one-to-one binding. B1: in test [1], the “Lowest Remaining Target %” value is 56%, the “Max RLU” value was determined as 1.85e+06 RLU, the “PBMC ADCC EC50” value came to 0.273 ng/mL and the “Reporter cell ADCC EC50” value amounted to 9.82 ng/mL. In test [2], the “ADCC EC50” value turned out to be 9.82 ng/mL, the “Lowest Remaining Target %” value came out at 56%, the “Max RLU” value stood at 1.85e+06 RLU and the “PBMC ADCC EC50” value is 0.273 ng/mL. Further, in [3], the Kd is 2.58 nM. In test [4], the Kd was determined as 3.27 nM.

B2: 40769p2.1.G4 IgG (antibody, V domains shown)
VH: EVQLLESGGGLVQPGGSLRLSCAASGFTFTSHDMNWVRQAPGKGLEWVSTITTGGNTYYADSVKGRFTISRDNSKNTLYLQMTSLRAEDTAVYYCTKHYSMDVWGQGTTVTVSS
VL: QSVLTQPPSASGTPGQRVTISCSGSTSNVVFNAVYWYQQLPGTAPKLLFYGKSQRPSGVPDRFSGSKSGTSASLAISGLQSEDEADYYCAAWDDTLNGWVFGGGTKLTVL
notes: IgG
In the case of B2, the dissociation constant (Kd) was 35.5 nM in test [5], 73.8 nM in test [6] and 106 nM in [7].

B3: 40769p2.2.A5 IgG (antibody, V domains shown)
VH: EVQLLESGGGLIQPGGSLRLSCTASGFDFSSYGMHWVRQAPGKGLEWVGIISDTGGTTYYGDSVKGRFTISRDNSKSTLYLQMNSLRAEDTALYYCASYIMDVWGQGTTVTVSS
VL: QSVLTQPPSASGTPGQRVTISCSGSNSNVGDNAVYWYQQLPGTAPKLLFYGTNRRPSGVPDRFSGSKSGTSASLAISGLQSEDEADYYCAAWDDSLNAWVFGGGTKLTVL
notes: IgG
As to B3, the Kd in test [5] amounted to 18.8 nM; in test [6] it was 221 nM; in [7], 1160 nM.

B4: 40769p1.1.H10 (antibody, V domains shown)
VH: EVQLLESGGGLVQPGGSLRLSCAAFGFTFSDYEMNWVRQAPGKGLEWVSSISITGSWTGYADSVKGRFTISRDNSKNTLYLQMNNLRAEDTAVYYCANYKSYYGMDVWGQGTTVTVSS
VL: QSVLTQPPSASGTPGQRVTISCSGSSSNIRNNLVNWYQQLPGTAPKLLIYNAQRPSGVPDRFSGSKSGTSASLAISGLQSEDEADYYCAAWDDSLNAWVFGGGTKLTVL
notes: as for B1
In the case of B4, in test [2], the “ADCC EC50” value turned out to be 20.7 ng/mL, the “Lowest Remaining Target %” value was 54%, the “Max RLU” value is 1.94e+06 RLU and the “PBMC ADCC EC50” value is 0.411 ng/mL. This molecule had a Kd in [8] of 0.02 nM. For the same molecule, the affinity in test [9], expressed as Kd, was 3.08 nM.

B5: 40769p2.1.C4 (antibody, V domains shown)
VH: EVQLLESGGGLVHPGGSLRLSCAASGFTFSDYEMNWVRQAPGKGLEWVSSISITGDFTYYADSVKGRFTISRDNSKNTLYLQMNNLRAEDTAVYYCANYKSYYGLDVWGQGTTVTVSS
VL: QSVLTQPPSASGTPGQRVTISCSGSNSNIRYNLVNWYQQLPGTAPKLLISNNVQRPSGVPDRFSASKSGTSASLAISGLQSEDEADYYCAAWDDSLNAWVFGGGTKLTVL
notes: as for B1
Regarding B5, in test [1], the “Lowest Remaining Target %” value came out at 63%, the “Max RLU” value is 1.44e+06 RLU, the “PBMC ADCC EC50” value came to 0.227 ng/mL and the “Reporter cell ADCC EC50” value is about 12.2 ng/mL. Besides, in [2], the “ADCC EC50” value was about 12.2 ng/mL, the “Lowest Remaining Target %” value turned out to be 63%, the “Max RLU” value turned out to be 1.44e+06 RLU and the “PBMC ADCC EC50” value was 0.227 ng/mL. Further, the Kd in [3] was found to be 1.46 nM. The Kd in test [4] amounted to 1.12 nM.

B6: 40769p2.1.F2 (antibody, V domains shown)
VH: EVQLLESGGGLVQPGGSLRLSCVASGFTFTNYEMNWVRQAPGKGLEWVSSISITGNYIYYADSVKGRFTISRDNSKNTLYLQMNDLRAEDTAVYYCANYKSYHGMDVWGQGTTVTVSS
VL: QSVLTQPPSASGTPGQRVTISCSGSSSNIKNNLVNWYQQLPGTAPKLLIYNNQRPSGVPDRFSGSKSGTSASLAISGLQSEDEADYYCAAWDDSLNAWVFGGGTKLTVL
notes: as for B1
For B6, in test [1], the “Lowest Remaining Target %” value is 57%, the “Max RLU” value was found to be 1.72e+06 RLU, the “PBMC ADCC EC50” value was found to be 0.293 ng/mL and the “Reporter cell ADCC EC50” value was found to be 25.3 ng/mL. In [2], the “ADCC EC50” value is 25.3 ng/mL, the “Lowest Remaining Target %” value came out at 57%, the “Max RLU” value stood at 1.72e+06 RLU and the “PBMC ADCC EC50” value was found to be 0.293 ng/mL. Further, the Kd in test [3] was 3.3 nM. The affinity in test [4], expressed as Kd, was 7.05 nM.

B7: 40769p2.2.C8 (antibody, V domains shown)
VH: EVQLLESGGGLVPPGGSLRLSCAASGFTFTNAWMSWVRQAPGKGLEWVSTIRSKTDGGTPYSADSVKGRFTISRDDSKNTLYLQMNSLRAEDTAVYYCAKYDYNYMDVWGQGTTVTVSS
VL: QSVLTQPPSASGTPGQRVTISCSGTTSNIGRNYVHWYQQFPGTAPKLLIYRNSQRPSGVPDRFSGSKSGTSASLAISGLQSEDEADYYCAAWDDSLNGWLFGGGTKLTVL
notes: as for B1
On to B7, for which, in test [1], the “Lowest Remaining Target %” value was determined as 58%, the “Max RLU” value came to 2.18e+06 RLU, the “PBMC ADCC EC50” value came out at 0.167 ng/mL and the “Reporter cell ADCC EC50” value was about 9.74 ng/mL. Also, in test [2], the “ADCC EC50” value was about 9.74 ng/mL, the “Lowest Remaining Target %” value is 58%, the “Max RLU” value came out at 2.18e+06 RLU and the “PBMC ADCC EC50” value worked out at 0.167 ng/mL. In addition, the Kd in [3] stood at 1.17 nM. In addition, binding in [4] was characterised by a dissociation constant (Kd) of 3.64 nM.

B8: 40769p2.2.E7 (antibody, V domains shown)
VH: EVQLLESGGGLVQPGGSLRLSCTGFGFTFTDARMSWVRQAPGKGLEWVADISSYGDNTYYADSVKGRFTISRDNSANTLYVQMNSLRAEDTAVYYCAKRMEREVMTIKLDYHAMDVWGQGTTVTVSS
VL: QSVLTQTPSVSGTPGQRVTISCSGIFNIRNYVSWYQQLPGTAPKLLIFKDDQRLSGVPDRFSGSGSGTSASLAISGLQSEDEADYYCAAWDIFLNVWVFGGGTKLTVL
notes: as for B1
Turning to B8, in [1], the “Lowest Remaining Target %” value worked out at 63%, the “Max RLU” value is 1.33e+06 RLU, the “PBMC ADCC EC50” value is 0.0245 ng/mL and the “Reporter cell ADCC EC50” value is about 13.2 ng/mL. In addition, in [2], the “ADCC EC50” value was about 13.2 ng/mL, the “Lowest Remaining Target %” value came out at 63%, the “Max RLU” value was found to be 1.33e+06 RLU and the “PBMC ADCC EC50” value amounted to 0.0245 ng/mL. Further, the Kd in test [3] was 0.47 nM. In test [4], the affinity, expressed as Kd, was 1.99 nM.
